According to US20110123532A1 (ONCOMED PHARMACEUTICALS, published 2011):

Experiments:
[1] = molecular target: the molecule itself; experiment: non-reducing western blot of conditioned medium of transfected HEK293 cells, anti-FLAG (left, middle) and anti-Fc (right); homodimer of the minibody
Excerpt: Var1 contains amino acid 249 Lys to Glu substitution and amino acid 288 Lys to Glu substitution within the CH3 domain. Antibody Var2 contains substitutions of amino acid 249 Lys to Glu substitution, amino acid 286 Tyr to Phe, and amino acid 288 Lys to Glu within the CH3 domain. Antibody Var3 (also referred to as 13A) contains substitutions of amino acid 236 Glu to Lys and amino acid 278 Asp to Lys. HEK293 cells were transiently transfected with combinations of expression vectors as indicated. Non-reducing Western blot analysis was conducted with an anti-FLAG antibody to reveal the size of the secreted antibody products.
Amino acid substitutions were introduced into either a truncated heavy chain (termed mini-body) containing the linker and CH2-CH3 region of a heavy chain, or a full length antibody heavy chain heavy chain.

[2] = molecular target: T1, full length human DLL4 on transfected human 293 HEK cells (human, UniProt Q9NR61 27-685); experiment: flow cytometry on human 293 HEK cells transfected with full length human DLL4 and GFP; goat anti-human IgG H/L-PE; MFI against log(nM), non-linear fit
T1 construct: whole, on cells; also called hDLL4 transfected cells; human DLL4 transfected cells

Row | EC50 [2] | Binder | binding result [1]
1 | – | FLAG tagged minibody with wild type human IgG2 CH2 and CH3 domains (WT) (other, also called WT minibody) DYKDDDDKCVECPPCPAPPVAGPSVFLFPPKPKDTLMISRTPEVTCVVVDVSHEDPEVQFNWYVDGVEVHNAKTKPREEQFNSTFRVVSVLTVVHQDWLNGKEYKCKVSNKGLPAPIEKTISKTKGQPREPQVYTLPPSREEMTKNQVSLTCLVKGFYPSDIAVEWESNGQPENNYKTTPPMLDSDGSFFLYSKLTVDKSRWQQGNVFSCSVMHEALHNHYTQKSLSLSPGK | binds
2 | – | FLAG tagged minibody variant Var1 (13B) (other) DYKDDDDKCVECPPCPAPPVAGPSVFLFPPKPKDTLMISRTPEVTCVVVDVSHEDPEVQFNWYVDGVEVHNAKTKPREEQFNSTFRVVSVLTVVHQDWLNGKEYKCKVSNKGLPAPIEKTISKTKGQPREPQVYTLPPSREEMTKNQVSLTCLVEGFYPSDIAVEWESNGQPENNYKTTPPMLDSDGSFFLYSELTVDKSRWQQGNVFSCSVMHEALHNHYTQKSLSLSPGK | binds
3 | 2 nM | 21M18 (antibody, V domains shown, also called 21M18 antibody; anti-human DLL4 (21M18)) VH: QVQLVQSGAEVKKPGASVKISCKASGYSFTAYYIHWVKQAPGQGLEWIGYISSYNGATNYNQKFKGRVTFTTDTSTSTAYMELRSLRSDDTAVYYCARDYDYDVGMDYWGQGTLVTVSS VL: DIVMTQSPDSLAVSLGERATISCRASESVDNYGISFMKWFQQKPGQPPKLLIYAASNQGSGVPDRFSGSGSGTDFTLTISSLQAEDVAVYYCQQSKEVPWTFGGGTKVEIKR | –
4 | 7.7 nM | Homo 13B (21M18) (antibody, human IgG2, kappa, V domains shown, also called 21M18 HC (with 13B mutation) expressed only with 21M18 LC) VH: QVQLVQSGAEVKKPGASVKISCKASGYSFTAYYIHWVKQAPGQGLEWIGYISSYNGATNYNQKFKGRVTFTTDTSTSTAYMELRSLRSDDTAVYYCARDYDYDVGMDYWGQGTLVTVSS VL: DIVMTQSPDSLAVSLGERATISCRASESVDNYGISFMKWFQQKPGQPPKLLIYAASNQGSGVPDRFSGSGSGTDFTLTISSLQAEDVAVYYCQQSKEVPWTFGGGTKVEIKR | –
